PMC2196380

Molecular target: HLA-DM (DMα/DMβ heterodimer) (human (endogenous in B-LCL)) (UniProt P28067)
Assay: co-IP

UniProt P28067, sequence (P28067 27-261, chain 1 of 2): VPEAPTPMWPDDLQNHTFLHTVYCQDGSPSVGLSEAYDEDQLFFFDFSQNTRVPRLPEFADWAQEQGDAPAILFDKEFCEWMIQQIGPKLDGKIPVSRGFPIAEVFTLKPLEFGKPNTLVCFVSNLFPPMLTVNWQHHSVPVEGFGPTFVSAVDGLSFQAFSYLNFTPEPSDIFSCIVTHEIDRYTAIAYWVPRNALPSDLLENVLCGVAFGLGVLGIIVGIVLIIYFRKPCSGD
UniProt P28067, sequence (P28068 19-263, chain 2 of 2, further chain): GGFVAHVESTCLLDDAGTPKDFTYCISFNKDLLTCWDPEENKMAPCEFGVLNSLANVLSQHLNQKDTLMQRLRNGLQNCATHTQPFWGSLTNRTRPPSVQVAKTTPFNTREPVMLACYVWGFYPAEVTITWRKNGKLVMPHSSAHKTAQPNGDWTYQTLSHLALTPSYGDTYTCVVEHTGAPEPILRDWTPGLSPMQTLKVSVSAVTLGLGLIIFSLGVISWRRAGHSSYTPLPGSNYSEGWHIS

percent coprecipitated with DM: 14%
Substance: wild-type HLA-DR3 αβCLIP complexes from T2.DR3 cells (from UniProt P01903 26-254) (peptide-MHC)
